Entries after “also recorded” stand apart in the source; their conditions may differ.
Tests used:
BL/6 mice = type: in vivo, mouse
endothelial cell = assay: VEGF mediated endothelial cell migration; type: cell-based; conditions: Slit constructs 2 nM
HMVEC-lung [1] = assay: Subcellular (membrane) fractionation and immunoblotting; type: cell-based, human
Protocol: Subcellular fractionation. HMVEC-lung were treated with Slit2N or Mock in 0.1% FBS EBM-2 for 1.5 hours. Cells were then washed twice with ice-cold PBS containing Ca^2+/Mg^2+, once with HLB buffer (10 mM Tris-HCl PH7.4, 5 mM KCl, 1 mM MgCl2), and collected in HLB buffer supplemented with protease inhibitors (Roche), phosphatase inhibitors (Sigma) and 1 mM DTT. Cells were then dounce-homogenized (20 strokes). The homogenate was centrifuged at 400 g for 10 minutes at 4° C. to pellet cell debris. The resulting supernatant was centrifuged again at 16,000 g for 30 minutes at 4° C. The pellet was washed once with HLB and resuspended in RIPA buffer for 30 minutes at 4° C. The resuspended pellet was centrifuged (16,000 g/15 min at 4° C.), and the resulting supernatant was saved as soluble membrane fraction. To obtain the total cell lysate an aliquot was saved prior to dounce homogenization. RIPA buffer was added to this aliquot and centrifuged at 13,000 g for 10 minutes at 4° C. The supernatant was saved and used as total cell lysate. Antibodies to VE-cadherin were obtained from Cell Signaling, and p120-catenin and β-catenin from BD biosciences.

HMVEC-lung [2] = assay: Immunofluorescence for VE-cadherin and p120-catenin after IL-1β stimulation; type: cell-based, human; conditions: 10 ng/mL IL-1β 3 hours, Slit2N pre-treatment 30 minutes
Protocol: Immunofluorescence. Immunofluorescence was performed as described in Jones, C. […] 2008. Cells were pre-treated with Slit2N or Mock for 30 minutes followed by stimulation with 10 ng/mL IL-1β for 3 hours. Primary antibodies to VE-cadherin (BD biosciences) or p120-catenin (Santa Cruz) were applied at 4° C. overnight. Images are representative of three independent experiments.

[3] = tested on: VE-cadherin/p120-catenin interaction; assay: Immunoprecipitation of VE-cadherin, immunoblot for p120-catenin; type: cell-based, human; conditions: HMVEC-lung, 10 ng/mL IL-1β 10 minutes
Protocol: Immunoprecipitation. HMVEC-lung were treated with Slit2N or Mock in 0.1% FBS EBM-2 for 30 minutes. Cells were then stimulated with 10 ng/mL IL-1β for 10 minutes. HMVEC-lung were then washed with ice-cold PBS and lysed with ice-cold lysis buffer (10 mM Tris-HCl pH7.4, 50 mM NaCl, 1% NP-40 and 10% glycerol) supplemented with protease inhibitors, phosphatase inhibitors and 1 mM DTT. Cell lysates were incubated on ice for 30 min and centrifuged at 13,000 g for 15 minutes to pellet cell debris. Protein concentrations were determined by BCA assay (PIERCE) and 0.5 mg lysate were incubated with 8 μg of VE-cadherin antibody (Cell Signaling) and protein A/G sepharose (Santa Cruz) for 1 hour at 4° C. Complexes were washed three times with lysis buffer. The immunoprecipitates were subjected to Western blot analysis.

VE-cadherin = VE-cadherin internalization assay; type: cell-based, human; conditions: HMVEC-lung, 10 ng/ml IL-1β 1 hour, 10 nM Slit2N
Protocol: Internalization assay. VE-cadherin internalization was performed as described Xiao, K., J. Garner, K. M. Buckley, P. A. Vincent, C. M. Chiasson, E. Dejana, V. Faundez, and A. P. Kowalczyk. 2005. p120-Catenin regulates clathrin-dependent endocytosis of VE-cadherin. Mol Biol Cell 16:5141-5151. In brief, HMVEC-lung were seeded onto chamber slides and cultured for 72 hours. The media was then removed and the cells labeled for 30 minutes at 4° C. with anti-VE-cadherin antibody (clone BV6, RDI Fitzgerald). Cells were then pre-treated with Slit2N or Mock for 30 minutes. Excess antibody was removed by washing twice on ice with ice-cold media. Chamber slides were moved to 37° C. and incubated for 1 hour with 10 ng/ml IL-1β and 0.6 mM primaquine in the presence of 10 nM Slit2N or Mock. Cells were acid-washed to strip the surface-bound VE-cadherin. Monolayers were washed, fixed, and permeablized. Internalized VE-cadherin antibody was detected with Alexa 488-conjugated donkey anti-mouse IgG (Molecular Probes). Images are representative of four independent experiments.

C57BL/6 mice [4] = type: in vivo, mouse
primary human PMNs = assay: Neutrophil migration to fMLP, primary hPMNs; type: cell-based; conditions: fMLP 10 μM, 2 h
Protocol: Neutrophil migration. HL-60 cells were grown under standard conditions with RPMI-1640 media supplemented with 10% FBS and 1% pen/step. Cells induced with 1.2% dimethyl sulphoxide (DMSO) were obtained by seeding HL-60 cells at 3×10^6 per mL in growth media and culturing for 4 6 days (Collins, S. J., F. W. Ruscetti, R. E. Gallagher, and R. C. Gallo. 1978. Terminal differentiation of human promyelocytic leukemia cells induced by dimethyl sulfoxide and other polar compounds. Proc Natl Acad Sci USA 75:2458-2462). hPMNs were isolated from healthy adult donor whole blood with ACD using techniques described in Zimmerman, G. A., T. M. McIntyre, and S. M. Prescott. 1985. Thrombin stimulates the adherence of neutrophils to human endothelial cells in vitro. J Clin Invest 76:2235-2246. The leukocyte chemoattractant fMLP (10 μM) along with Slit2 or Mock was placed in the lower wells of a 48-well chemotaxis chamber (Neuroprobe). A fibronectin coated (over night at 4° C.) polycarbonate membrane (Neuroprobe, 5 μm) was placed between the chemoattractant and the cells. HL-60 cells induced with DMSO or hPMNs (50 μl, 50,000 cells) were added to the upper wells. […] Migrated cells in 5 high power fields were counted and migration expressed as the percent of cells migrated compared to cells migrated towards fMLP in the absence of Slit2 or Mock.

C57BL/6 mice [5] = type: in vivo, mouse; remark: listed apart in the source
[6] = tested on: H5N1 virus (Influenza A, Duck/MN/1525/81); type: in vivo, BALB/c mice
[7] = Slit2N vs Mock, membrane fraction
[8] = 20 μg VE-cadherin blocking antibody (BV13) IV, LPS IT
[9] = Robo4+/+ mice, 24 hours after LPS, dose-dependent

COc1nc(-c2ccc3c(c2)OCO3)n(-c2ccc(NC(=O)CSc3ccccc3)cc2)n1 [SecinH3, reference compound]
Bleomycin-induced fibrosis (Sircol collagen assay) (BL/6 mice; BL/6 mice, 0.05 U Bleomycin intranasal, 100 uL of 30 uM SecinH3 i.p. twice a day, day 11): inhibits

B1: Slit2-D1: Recombinant Slit2 construct, 40 kD, SEQ ID NO: 7 (protein, listed as Homo sapiens)
chain: ILNKVAPQACPAQCSCSGSTVDCHGLALRSVPRNIPRNTERLDLNGNNITRITKTDFAGLRHLRVLQLMENKISTIERGAFQDLKELERLRLNRNHLQLFPELLFLGTAKLYRLDLSENQIQAIPRKAFRGAVDIKNLQLDYNQISCIEDGAFRALRDLEVLTLNNNNITRLSVASFNHMPKLRTFRLHSNNLYCDCHLAWLSDWLRQRPRVGLYTQCMGPSHLRGHNVAEVQKREFVCS
Inhibition of VEGF mediated endothelial cell migration (endothelial cell): active

B2: Slit2N: N-terminal active fragment of Slit2 released by proteolytic cleavage; 150 kD recombinant protein, SEQ ID NO: 4 (protein, listed as Homo sapiens)
chain: QACPAQCSCSGSTVDCHGLALRSVPRNIPRNTERLDLNGNNITRITKTDFAGLRHLRVLQLMENKISTIERGAFQDLKELERLRLNRNHLQLFPELLFLGTAKLYRLDLSENQIQAIPRKAFRGAVDIKNLQLDYNQISCIEDGAFRALRDLEVLTLNNNNITRLSVASFNHMPKLRTFRLHSNNLYCDCHLAWLSDWLRQRPRVGLYTQCMGPSHLRGHNVAEVQKREFVCSDEEEGHQSFMAPSCSVLHCPAACTCSNNIVDCRGKGLTEIPTNLPETITEIRLEQNTIKVIPPGAFSPYKKLRRIDLSNNQISELAPDAFQGLRSLNSLVLYGNKITELPKSLFEGLFSLQLLLLNANKINCLRVDAFQDLHNLNLLSLYDNKLQTIAKGTFSPLRAIQTMHLAQNPFICDCHLKWLADYLHTNPIETSGARCTSPRRLANKRIGQIKSKKFRCSGTEDYRSKLSGDCFADLACPEKCRCEGTTVDCSNQKLNKIPEHIPQYTAELRLNNNEFTVLEATGIFKKLPQLRKINFSNNKITDIEEGAFEGASGVNEILLTSNRLENVQHKMFKGLESLKTLMLRSNRITCVGNDSFIGLSSVRLLSLYDNQITTVAPGAFDTLHSLSTLNLLANPFNCNCYLAWLGEWLRKKRIVTGNPRCQKPYFLKEIPIQDVAIQDFTCDDGNDDNSCSPLSRCPTECTCLDTVVRCSNKGLKVLPKGIPRDVTELYLDGNQFTLVPKELSNYKHLTLIDLSNNRISTLSNQSFSNMTQLLTLILSYNRLRCIPPRTFDGLKSLRLLSLHGNDISVVPEGAFNDLSALSHLAIGANPLYCDCNMQWLSDWVKSEYKEPGIARCAGPGEMADKLLLTTPSKKFTCQGPVDVNILAKCNPCLSNPCKNDGTCNSDPVDFYRCTCPYGFKGQDCDVPIHACISNPCKHGGTCHLKEGEEDGFWCICADGFEGENCEVNVDDCEDNDCENNSTCVDGINNYTCLCPPEYTGELCEEKLDFCAQDLNPCQHDSKCILTPKGFKCDCTPGYVGEHCDIDFDDCQDNKCKNGAHCTDAVNGYTCICPEGYSGLFCEFSPPMVLPRT
VE-cadherin levels at the cell surface junctions (HMVEC-lung [1]; Slit2N vs Mock 1.5 hours, membrane fraction and immunofluorescence): significantly increased
cell surface p120-catenin expression (HMVEC-lung [1]; [7]): increased
other junction or catenin family members (β-catenin) (HMVEC-lung [1]; [7]): no observed effect
IL-1β decrease of p120-catenin at the cell surface (HMVEC-lung [2]): reversed this effect
IL-1β reduction of VE-cadherin levels at the cell surface (HMVEC-lung [2]): negated this effect
association of VE-cadherin and p120-catenin after IL-1β [3]: restores
internalization of VE-cadherin induced by IL-1β (VE-cadherin): blocks
inflammatory cell infiltration in BALF in the presence of a VE-cadherin blocking antibody (C57BL/6 mice [4]; [8]): not
protein exudates in BALF in the presence of a VE-cadherin blocking antibody (C57BL/6 mice [4]; [8]): not
inflammatory cell infiltration in BALF in the presence of a control IgG antibody (C57BL/6 mice [4]; 20 μg control IgG IV, LPS IT): reduced
protein exudates in BALF in the presence of a control IgG antibody (C57BL/6 mice [4]; 20 μg control IgG IV, LPS IT): reduced
vascular leak in the lungs (Evans Blue Albumin) (C57BL/6 mice [4]; LPS treated Robo4+/+ mice, 10 μg LPS IT, 3.5 μg Slit2N IV): significantly reduces
effect on vascular leak in the lungs (Evans Blue Albumin), Robo4-null mice (C57BL/6 mice [4]; LPS treated Robo4AP/AP mice): lost
LPS-induced lung inflammation / ALI by histological examination (H&E, quantitative histology) (C57BL/6 mice [4]; Robo4+/+ mice): reducing; also recorded: reduces
inflammatory cell accumulation in BALF (C57BL/6 mice [4]; [9]): reduced
protein exudates in BALF (C57BL/6 mice [4]; [9]): reduced
inhibition of leukocyte accumulation in BALF, Robo4-null mice (C57BL/6 mice [4]; Robo4AP/AP mice): lost
inhibition of protein accumulation in BALF, Robo4-null mice (C57BL/6 mice [4]; Robo4AP/AP mice): lost
neutrophil migration to fMLP (primary human PMNs): did not respond
Bleomycin-induced pulmonary fibrosis (Sircol collagen) (BL/6 mice; Robo4+/+ mice, day 11, 5 μg daily i.p.): significantly reduced
Bleomycin-induced EBA accumulation in the lung (BL/6 mice; Robo4+/+ mice, eleven days after Bleomycin, 5 μg daily i.p.): significantly reduced
histologic examination of the lung, trichrome stain (collagen deposition) (BL/6 mice; Robo4-dependent manner): confirmed the effect
effect on Bleomycin-induced EBA accumulation in the lung, Robo4-null mice (BL/6 mice; Robo4AP/AP mice): lost
effect on Bleomycin-induced pulmonary fibrosis, Robo4-null mice (BL/6 mice; Robo4AP/AP mice): lost
survival of mice exposed to CLP-induced sepsis (C57BL/6 mice [5]; mouse, in vivo, ip): ~80%
expression of a panel of cytokines and chemokines in plasma (C57BL/6 mice [5]; six hours after CLP): did not alter
lung pathology (H&E) ([6]; 6 days after infection, compared to mock treated mice): decreased in severity
level of inflammatory cytokine release in lung homogenates ([6]; 6 days post-infection): does not significantly reduce
lung viral titers (viral load) ([6]; 6 days post-infection): did not alter
mortality after H5N1 infection ([6]; 21 days, 1.56 μg IV daily for 5 days): reduced

Reference: US20120129757A1, “COMPOSITIONS AND METHODS FOR PROMOTING VASCULAR BARRIER FUNCTION AND TREATING PULONARY FIBROSIS” (priority 2008, published 2012)
